Data taken from patent US20220389066A1, “POLYPEPTIDES” (Affibody AB, priority 2019, published 2022).

Legend:
[1] = molecular target: T1, ZH 06 as periplasmic ABD fusion AQHDEALE-[ZH 06]-VDYV-[ABD]-YVPG (Streptococcus strain G148, UniProt P19909 254-299, limits assumed); test: SPR (Biacore 2000) screening; periplasmic Z-ABD captured on anti-ABD antibody, 200 nM boxA(disulfide); 1:1 model
T1 construct: domain: GA3
Protocol: (§1) Biacore screening of Z variants: The binding of Z variants to boxA(disulfide) was analyzed in an affinity screening using a Biacore 2000 instrument. A polyclonal goat anti-ABD antibody (goat anti-ABD) was immobilized on CM5 chip surfaces basically as described for other proteins in Example 3. For the kinetic screening, analytes were injected in two steps. First, a Z-ABD (where ABD is GA3) periplasmic extract was injected over the surface at 5 μl/min for 10 min. As a second step, 200 nM boxA(disulfide) was injected at 20 μl/min for 5 min, followed by 10 min of dissociation in running buffer HBS-EP. Glycine-HCl pH 2.0 (GE Healthcare, cat. no. BR100355) was used for regeneration of the antibody surfaces between the cycles. The temperature of the assay was 25° C. Before performing the kinetic analyses, the signal from 200 nM boxA(disulfide) injected over a reference surface containing goat anti-ABD but no Z-ABD sample was subtracted from the sensorgram of Z-ABD binding to boxA(disulfide). […] A periplasmic extract of ZH 01 was included in the screening analysis for comparison.
(§2) Biacore screening of Z variants: Seven new unique Z variants giving the highest response in ELISA-screen, ZH 04 (SEQ ID NO:4), ZH 05 (SEQ ID NO:5), ZH 06 (SEQ ID NO:6), ZH 07 (SEQ ID NO:7), ZH 08 (SEQ ID NO:8), ZH 09 (SEQ ID NO:9) and ZH 10 (SEQ ID NO:10) were submitted to a Biacore affinity screening together with ZH 01 (SEQ ID NO:1) and ZH 29 (SEQ ID NO:29; its binding motif is identical to that of ZH 01, but the sequence comprises scaffold amino acid variations V1A, D2E, Y5F, N52S and D53E). A single concentration of boxA(disulfide) was injected over each Z-ABD captured from periplasmic extracts on a sensor chip surface containing an anti-ABD antibody.

[2] = molecular target: T2, ZH 10 as periplasmic ABD fusion AQHDEALE-[ZH 10]-VDYV-[ABD]-YVPG (Streptococcus strain G148, UniProt P19909 254-299, limits assumed); test: as above
T2 construct: domain: GA3
Protocol: as §1, §2

[3] = molecular target: T3, ZH 09 as periplasmic ABD fusion AQHDEALE-[ZH 09]-VDYV-[ABD]-YVPG (Streptococcus strain G148, UniProt P19909 254-299, limits assumed); test: as above
T3 construct: domain: GA3
Protocol: as §1, §2

[4] = molecular target: T4, ZH 01 as periplasmic ABD fusion AQHDEALE-[ZH 01]-VDYV-[ABD]-YVPG (Streptococcus strain G148, UniProt P19909 254-299, limits assumed); test: as above
T4 construct: domain: GA3
Protocol: as §1, §2

[5] = molecular target: T5, ZH 05 as periplasmic ABD fusion AQHDEALE-[ZH 05]-VDYV-[ABD]-YVPG (Streptococcus strain G148, UniProt P19909 254-299, limits assumed); test: as above
T5 construct: domain: GA3
Protocol: as §1, §2

[6] = molecular target: T6, ZH 08 as periplasmic ABD fusion AQHDEALE-[ZH 08]-VDYV-[ABD]-YVPG (Streptococcus strain G148, UniProt P19909 254-299, limits assumed); test: as above
T6 construct: domain: GA3
Protocol: as §1, §2

[7] = molecular target: T7, ZH 29 as periplasmic ABD fusion AQHDEALE-[ZH 29]-VDYV-[ABD]-YVPG (Streptococcus strain G148, UniProt P19909 254-299, limits assumed); test: SPR (Biacore 2000) screening; periplasmic Z-ABD captured on anti-ABD antibody, 200 nM boxA(disulfide); 1:1 model; average of 3 measurements
T7 construct: domain: GA3
Protocol: as §1, with “comparison. […]” for “comparison.”

[8] = molecular target: T8, ZH 07 as periplasmic ABD fusion AQHDEALE-[ZH 07]-VDYV-[ABD]-YVPG (Streptococcus strain G148, UniProt P19909 254-299, limits assumed); test: SPR (Biacore 2000) screening; periplasmic Z-ABD captured on anti-ABD antibody, 200 nM boxA(disulfide); 1:1 model; average of 8 measurements
T8 construct: domain: GA3
Protocol: as §1, with “comparison. […]” for “comparison.”

[9] = molecular target: T9, ZH 04 as periplasmic ABD fusion AQHDEALE-[ZH 04]-VDYV-[ABD]-YVPG (Streptococcus strain G148, UniProt P19909 254-299, limits assumed); test: SPR (Biacore 2000) screening; periplasmic Z-ABD captured on anti-ABD antibody, 200 nM boxA(disulfide); 1:1 model; average of 2 measurements
T9 construct: domain: GA3
Protocol: as §1, with “comparison. […]” for “comparison.”

B1: boxA(disulfide), disulfide linked form of A-box domain of HMGB1 (other)
chain: MGKGDPKKPRGKMSSYAFFVQTCREEHKKKHPDASVNFSEFSKKCSERWKTMSAKEKGKFEDMAKADKARYEREMKTYIPPKGETKKKF
modifications: disulfide C23-C45
notes: also called b-boxA(disulfide)
B1 gave a Kd [1] of roughly 71 nM, a Kd [2] of roughly 47 nM and a Kd [3] of roughly 91 nM. It also gave a Kd [4] of roughly 4.7 nM, a Kd [5] of roughly 54 nM and a Kd [6] of roughly 31 nM. For the same binder, the Kd [7] was roughly 36 nM, the Kd [8] was roughly 44 nM and the Kd [9] was roughly 54 nM.
